# Data as given in patent publication US8008542B2, “Compositions, cells, and plants that include BKI1, a negative regulator of BRI1-mediated BR signaling” (The Salk Institute for Biological Studies, priority 2007, dated 2011).
# T1: endogenous BRI1 (Arabidopsis thaliana, UniProt O22476)
# T1 construct: from tissue; host or cells: short-day grown seedlings of Col-0 transgenic plants expressing BKI1-FLAG
# T1 sequence (O22476 24-1196): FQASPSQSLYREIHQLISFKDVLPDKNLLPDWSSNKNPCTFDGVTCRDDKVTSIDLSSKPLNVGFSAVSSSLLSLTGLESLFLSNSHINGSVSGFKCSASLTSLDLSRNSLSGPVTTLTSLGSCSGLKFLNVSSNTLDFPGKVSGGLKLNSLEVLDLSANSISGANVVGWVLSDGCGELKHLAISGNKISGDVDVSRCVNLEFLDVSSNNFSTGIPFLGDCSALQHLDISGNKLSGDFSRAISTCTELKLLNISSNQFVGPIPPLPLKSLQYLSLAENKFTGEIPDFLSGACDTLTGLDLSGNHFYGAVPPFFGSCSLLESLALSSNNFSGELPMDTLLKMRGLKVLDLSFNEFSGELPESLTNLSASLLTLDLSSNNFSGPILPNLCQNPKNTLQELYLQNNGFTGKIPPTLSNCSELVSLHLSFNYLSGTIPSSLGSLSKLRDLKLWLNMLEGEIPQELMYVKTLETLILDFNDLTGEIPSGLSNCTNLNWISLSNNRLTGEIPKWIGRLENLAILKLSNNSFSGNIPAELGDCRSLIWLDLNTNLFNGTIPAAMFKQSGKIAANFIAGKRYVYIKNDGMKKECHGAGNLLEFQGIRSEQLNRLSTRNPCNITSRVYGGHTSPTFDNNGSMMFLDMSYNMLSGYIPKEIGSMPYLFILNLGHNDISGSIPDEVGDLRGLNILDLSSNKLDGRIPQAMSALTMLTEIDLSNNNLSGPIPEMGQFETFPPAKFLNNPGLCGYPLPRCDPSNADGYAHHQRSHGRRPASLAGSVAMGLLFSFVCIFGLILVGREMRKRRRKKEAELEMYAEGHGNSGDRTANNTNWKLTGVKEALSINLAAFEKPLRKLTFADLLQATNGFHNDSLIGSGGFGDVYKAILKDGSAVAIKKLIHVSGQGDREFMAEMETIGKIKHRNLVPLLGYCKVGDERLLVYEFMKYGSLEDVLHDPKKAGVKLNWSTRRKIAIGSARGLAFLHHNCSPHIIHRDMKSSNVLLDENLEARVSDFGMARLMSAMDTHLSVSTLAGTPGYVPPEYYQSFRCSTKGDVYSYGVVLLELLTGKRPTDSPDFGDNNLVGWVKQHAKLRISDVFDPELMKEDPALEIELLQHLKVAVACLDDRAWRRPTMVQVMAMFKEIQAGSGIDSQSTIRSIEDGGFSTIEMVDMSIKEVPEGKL
# T2: interaction between the kinase domains of BRI1 and BAK1 (Arabidopsis thaliana, UniProt O22476)
# T2 construct: His (C); made in house; host or cells: BRI1-KD-HIS: TNT T7 coupled reticulocyte lysate (Promega)
# T2 sequence (O22476 883-1158 limits assumed): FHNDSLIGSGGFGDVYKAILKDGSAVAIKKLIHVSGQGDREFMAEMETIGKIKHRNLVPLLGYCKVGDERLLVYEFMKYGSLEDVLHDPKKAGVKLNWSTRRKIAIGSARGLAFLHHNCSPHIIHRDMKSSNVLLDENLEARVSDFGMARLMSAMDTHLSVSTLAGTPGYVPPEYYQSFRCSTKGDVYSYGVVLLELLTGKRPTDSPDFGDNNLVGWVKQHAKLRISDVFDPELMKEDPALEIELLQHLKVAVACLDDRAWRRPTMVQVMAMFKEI
# B1: BKI1-FLAG: BKI1 with three copies of FLAG fused at the C-terminal end (protein)
# chain: METNLQQVKNSSQTFSEKQNPKQEASPSPISSTCSSPSHDFSFTISLQPLSSSSKHISPTLRSPSKTTSSYQQTDPFAVDLSPADEIFFHGHLLPLHLLSHLPVSPRTSTGSYNDGFTLPVKDILPDQPTNNNNNTENAITNISTEAKDDNTEDKAEGEIRVKTKPIKSFSLFGLSKWRKGFESNEREQEQQQQKIKKPMSLDLSHAVKKYIRMLFQKRGNGTQFWNRRQTSSYSFSSSLMGPNGNSKTMINGSYNKRDLIRGRRGELFSAPASMRTSPTNSGHLRVSTAGLSSSSGSTSSSSSDSTMEELQAAIQAAIAHCKNSSAVDRDDKVKDSDYKDDDDKVKLDYKDDDDKVKLDYKDDDDKVKL
# B2: MBP-BKI1: BKI1-maltose binding protein fusion (N-terminal MBP) (protein)
# chain: METNLQQVKNSSQTFSEKQNPKQEASPSPISSTCSSPSHDFSFTISLQPLSSSSKHISPTLRSPSKTTSSYQQTDPFAVDLSPADEIFFHGHLLPLHLLSHLPVSPRTSTGSYNDGFTLPVKDILPDQPTNNNNNTENAITNISTEAKDDNTEDKAEGEIRVKTKPIKSFSLFGLSKWRKGFESNEREQEQQQQKIKKPMSLDLSHAVKKYIRMLFQKRGNGTQFWNRRQTSSYSFSSSLMGPNGNSKTMINGSYNKRDLIRGRRGELFSAPASMRTSPTNSGHLRVSTAGLSSSSGSTSSSSSDSTMEELQAAIQAAIAHCKNSSAVDRDDKVKDS
# modifications: left off: large carriers
# Tests used:
# [1] = target: T1, endogenous BRI1; experiment: Immunoprecipitation from BKI1-FLAG plants; type: binding; conditions: immunoprecipitation with anti-FLAG
# Description: Short-day grown seedlings of Col-0 and transgenic plants containing BKI1-FLAG were ground to a fine powder in liquid nitrogen, and solubilized with 2× extraction buffer (100 mM Tris-HCl pH 7.5, 300 mM NaCl, 2 mM EDTA, 1% Triton, 10% glycerol, and protease inhibitor). The extracts were centrifuged at 5,000×g for 10 min, and the resultant supernatant was then spun at 100,000×g for 90 min at 4° C. to remove membrane fractions. The supernatant was incubated with pre-washed anti-FLAG M2 agarose gel (Sigma) for three hours at 4° C., and the agarose gel was washed five times with TBS Buffer containing 0.02% Tween 20. The immunoprecipitates were eluted with 1×SDS sample buffer by boiling for 5 min, separated on a 4-20% Novex Tris-Glycine SDS-PAGE gel (Invitrogen), transferred to PVDF membrane (Millipore), and detected with either anti-BRI1 antibody for endogenous BRI1 or monoclonal anti-FLAG M2 (Sigma) for BKI1-FLAG. Signals were visualized using the Odyssey Infrared Imaging system (LI-COR Biosciences Inc.).
# [2] = target: T2, interaction between the kinase domains of BRI1 and BAK1; experiment: GST pull-down of 35S-BRI1-KD-HIS by GST-BAK1-KD in vitro; type: binding; conditions: 10 μM of MBP-BKI1, five replicates, p=0.000013
# Description: Seedlings were grown on MS medium containing 1 μM of BRZ220. The time of BL treatment is indicated. Top panels: BKI1-YFP; Lower panels: myriBKI1-YFP. […] Immunoblots with anti-GFP show levels of myriBKI1-YFP and BKI1-YFP. Bottom band: loading control. […] The total ^35S-Met labeled BRI1-KD-HIS co-precipitated by GST-BAK1-KD was defined as “1”. Five replicates were conducted. Error bars indicate standard error. 1, GST-BAK1-KD±35S-BRI1-KD-HIS; 2, GST-BAK1-KD+35S-BRI1-KD-HIS+10 μM of MBP; 3, GST-BAK1-KD+35S-BRI1-KD-HIS+10 μM of MBP-BKI1. […] Without BL, BRI1 kinase is kept in a basal state by both its own carboxyl terminal domain and by an interaction with BKI1. Brassinosteroid binding to the extracellular domain of BRI1 induces a conformational change of the kinase domain, leading to the phosphorylation of the C-terminal domain of BRI1 and BKI1, the dissociation of BKI1 from the plasma membrane, and the release of autoinhibition of BRI1. These events lead to the full activation of BRI1 and its association with BAK1 or other substrates. Plasma membrane-dissociated BKI1 may also regulate other unknown components in the brassinosteroid signaling cascade. BSU1 is a nuclear serine/threonine phosphatase involved in the dephosphorylation of BES1 (27). […]
Molecule,interaction with endogenous BRI1 in vivo [1],inhibition of the interaction between the kinase domains of BRI1 and BAK1 [2]
B1,interacted,–
B2,–,approximately 62%
